Experimental data taken from PMC5612765.

Columns and labels:
[1] = test system: T1, Fis (His-tagged) (Pseudomonas putida), ORF:eb421da7; test: EMSA with competition; conditions: EMSA: 24 mM Tris/HCl pH 7.5, 50 mM KCl, 10 mM MgCl2, 1 mM CaCl2, 0.1 mM EDTA, 5% glycerol, 0.05 ug/ul BSA, 0.05 ug/ul salmon sperm DNA, 20 min room …
T1 sequence: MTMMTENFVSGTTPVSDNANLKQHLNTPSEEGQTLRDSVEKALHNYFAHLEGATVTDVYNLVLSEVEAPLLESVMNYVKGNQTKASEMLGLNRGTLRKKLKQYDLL

[2] = test system: T1, Fis (His-tagged) (Pseudomonas putida), ORF:eb421da7; test: DNase I footprinting; conditions: EMSA: 24 mM Tris/HCl pH 7.5, 50 mM KCl, 10 mM MgCl2, 1 mM CaCl2, 0.1 mM EDTA, 5% glycerol, 0.05 ug/ul BSA, 0.05 ug/ul salmon sperm DNA, 20 min room …

Row | Sequence | binding [1] | binding [2]
1 | AGGATCCGAAACGCTTGGCTAAGGTACAAATATCAATGTGACATTACATTGCCGATTGTTTAGGATGGCATGTATAAGCTGAATAGTTTGGAGGTCAGGCAATTCCAAAAAGTTATAGACGGAATATTGACGTCAAAAACGTCAAGAGATCATCGACATAGTTCCGCCTGAAGTGGCTAGCAAGCGCCGCTCTGGCAGGGAAGTACC (double strand) [Fis-A1-Fis-A2mut fragment] | binds more weakly | 
2 | AGGATCCGAAACGCTTGGCTAAGGTACAAATATCAATGTGACATTACATTGCCGATTGTTTAGGATGGCATGTATAAGGTCAATAGTTTGGCAGTCAGGCAATTCCAAAAAGTTATAGACGGAATATTGACGTCACCCACGTGCCGAGATCATCGACATAGTTCCGCCTGAAGTGGCTAGCAAGCGCCGCTCTGGCAGGGAAGTACC (double strand) [Fis-A1mut-Fis-A2 fragment] | binds more weakly | 
3 | GGTACTTCCCTGCCAGAGCGGCGCTTGCTAGCCACTTCAGGCGGAACTATGTCGATGATCTCTTGACGTTTTTGACGTCAATATTCCGTCTATAACTTTTTGGAATTGCCTGACTGCCAAACTATTGACCTTATACATGCCATCCTAAACAATCGGCAATGTAATGTCACATTGATATTTGTACCTTAGCCAAGCGTTTCGGATCCT (double strand) [lapA Fis-A1/Fis-A2 fragment WT] | binds | binds
4 | TGCTGATAAGGGTTATCACGCCCTGGTGCTGGAGCAGCTGGCCAATGTTCGCCTTGAATCGGTGTTGAGTAAACAATTCTACGTGCTTCATTTTCACCAGACTTAGCGGGGCAATGATTCTGACAGGCCTGATCCAGCCATCATCCGGCTTGTTGCAGCATAGCCTGCCACTCAGCCAAGGCATGCAAGGGCTTTGGGTTCCAGCTTAGTCACTGTCAGTAAACAGGCGCTGGATCCA (double strand) [Fis-A7mut fragment] | binds more weakly | 
5 | TGCTGATAAGGGTTATCACGCCCTGGTGCTGGAGCAGCTGGCCAATGTTCGCCTTGAATCGGTGTTGAGTAAACAATTCTACGTGCTTCATTTTCACCAGACTTAGCGGGGCAATGATTGTTTCATTTTTGATCCAGCCATCATCCGGCTTGTTGCAGCATAGCCTGCCACTCAGCCAAGGCATGCAAGGGCTTTGGGTTCCAGCTTAGTCACTGTCAGTAAACAGGCGCTGGATCCA (double strand) [lapA Fis-A7 fragment WT] | binds | binds
6 | TTGAATTCATGCAAGGGCTTTGGGTTCCAGCTTAGTCACTGTCAGTAAACAGGCGCTGGTTTGTTGGCGCATATCTGTGGCTTGTTAGTCAAAATTCATCTATAGAGTGCGGATTCTTGCCTTCTTGCATTCAATATCCGCAAGCGATTTTCAATGATCGGGATACCATTATTCACGCACTCGTCGGTCATCTCTTTGATTTGCGACACATAGCTGCTTGTGACTCGGATCCAAA (double strand) [lapA Fis-A5/Fis-A6 fragment WT] | binds | binds
7 | TTTGGATCCGAGTCACAAGCAGCTATGTGTCGCAAATCAAAGAGATGACCGACGAGTGCGTGAATAATGGTATCCCGATCATTGAAAATCGCTTGCGGAGGCTGACTGGGAGAAGGCAAGAATCCGCACTCTATAGATGAATTTTGACTAACAAGCCACAGATATGCGCCAACAAACCAGCGCCTGTTTACTGACAGTGACTAAGCTGGAACCCAAAGCCCTTGCATGAATTCAA (double strand) [Fis-A5mut-Fis-A6 fragment] | binds more weakly | 
8 | TTTGGATCCGAGTCACAAGCAGCTATGTGTCGCAAATCAAAGAGATGACCGACGAGTGCGTGAATAATGGTATCCCGATCATTGAAAATCGCTTGCGGATATTGAATGCAAGAAGGCAAGAATCCGCACTCTATACACGTAGGCCGACTAACAAGCCACAGATATGCGCCAACAAACCAGCGCCTGTTTACTGACAGTGACTAAGCTGGAACCCAAAGCCCTTGCATGAATTCAA (double strand) [Fis-A5-Fis-A6mut fragment] | binds more weakly | 
